Assay results taken from PMC8956657 (Nature Communications, 2022).
Where no end group is shown, it is not given here.

What was measured:
Assay in all cases: fluorescence polarisation
Settings in all cases: both partners purified
[1] = molecular target: T1, IMPα5 lacking the IBB domain (residues 73-538) (UniProt P52294 73-538)
T1 construct: also called ΔIBB-IMPα5; importin alpha 5

[2] = molecular target: T2, IMPα7 lacking the IBB domain (residues 73-536) (UniProt O60684 73-536)
T2 construct: also called ΔIBB-IMPα7; importin alpha 7

[3] = molecular target: IMPα1 lacking the IBB domain (residues 70-529) (UniProt P52292 70-529)
[4] = molecular target: T3, IMPα3 lacking the IBB domain (residues 64-521) (UniProt O00629 64-521)
T3 construct: also called ΔIBB-IMPα3; KPNA4
T3 sequence (looked up): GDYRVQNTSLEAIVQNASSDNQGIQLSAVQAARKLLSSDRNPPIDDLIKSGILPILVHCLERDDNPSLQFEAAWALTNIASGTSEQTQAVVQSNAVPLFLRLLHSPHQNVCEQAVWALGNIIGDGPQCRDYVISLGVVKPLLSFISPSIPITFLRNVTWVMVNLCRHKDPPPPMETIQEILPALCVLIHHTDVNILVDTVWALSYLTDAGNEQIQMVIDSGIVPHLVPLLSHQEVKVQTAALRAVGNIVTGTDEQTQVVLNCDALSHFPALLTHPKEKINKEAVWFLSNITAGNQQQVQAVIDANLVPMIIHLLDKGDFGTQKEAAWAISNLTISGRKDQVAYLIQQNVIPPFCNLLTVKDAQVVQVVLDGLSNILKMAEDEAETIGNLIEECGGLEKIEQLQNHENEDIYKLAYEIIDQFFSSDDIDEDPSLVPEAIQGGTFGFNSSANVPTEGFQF

T2 sequence (O60684 73-536): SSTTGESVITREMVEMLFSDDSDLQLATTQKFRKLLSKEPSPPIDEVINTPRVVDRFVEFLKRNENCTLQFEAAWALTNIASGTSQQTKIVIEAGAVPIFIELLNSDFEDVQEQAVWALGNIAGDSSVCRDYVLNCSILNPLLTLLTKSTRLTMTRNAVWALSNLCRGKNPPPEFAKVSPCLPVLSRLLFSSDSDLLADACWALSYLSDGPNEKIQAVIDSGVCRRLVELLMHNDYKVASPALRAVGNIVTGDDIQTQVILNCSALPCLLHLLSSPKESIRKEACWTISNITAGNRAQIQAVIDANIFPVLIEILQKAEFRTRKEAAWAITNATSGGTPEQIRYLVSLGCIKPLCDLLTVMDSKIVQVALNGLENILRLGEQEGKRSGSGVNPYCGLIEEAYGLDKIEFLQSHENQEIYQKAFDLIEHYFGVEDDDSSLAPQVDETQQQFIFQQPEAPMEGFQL
T1 sequence (P52294 73-538): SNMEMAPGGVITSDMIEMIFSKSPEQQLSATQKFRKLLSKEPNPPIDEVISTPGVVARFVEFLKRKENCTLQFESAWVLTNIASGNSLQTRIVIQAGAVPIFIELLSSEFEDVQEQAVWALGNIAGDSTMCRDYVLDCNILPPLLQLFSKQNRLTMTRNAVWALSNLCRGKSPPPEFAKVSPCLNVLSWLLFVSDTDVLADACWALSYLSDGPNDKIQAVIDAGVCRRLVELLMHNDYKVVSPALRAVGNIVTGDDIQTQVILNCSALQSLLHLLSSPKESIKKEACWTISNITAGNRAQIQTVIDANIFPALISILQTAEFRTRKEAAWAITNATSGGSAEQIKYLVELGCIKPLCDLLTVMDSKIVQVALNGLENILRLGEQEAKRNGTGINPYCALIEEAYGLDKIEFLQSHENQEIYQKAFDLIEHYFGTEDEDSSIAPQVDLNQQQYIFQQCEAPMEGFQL

RKARKRSHSPTKKLRYVKRRF (also: FITC-tagged) [FITC-tagged MERS-CoV ORF4b NLS peptide (residues 19-39), wild type]
binding result [1]: binds | Kd [2]: 1.9 nM | Kd [3]: 2.5 nM | Kd [4]: 1.4 nM
